Source: article PMC4241985

Biological target: transmembrane domain of Thermus thermophilus MgtE (278-450) (Thermus thermophilus) (UniProt Q5SMG8)
Assay: crystal structure

A stoichiometry N of 2 was found for “transmembrane domain of Thermus thermophilus MgtE (278-450) (from UniProt Q5SMG8 278-450) (domain or fragment)” in this work.
